Source: patent publication US20240181022A1, “AMURINS LYSINS, AND LYSIN-ANTIMICROBIAL PEPTIDE (AMP) CONSTRUCTS ACTIVE AGAINST GRAM-NEGATIVE BACTERIA” (priority 2021, published 2024)
Values after ≈ are worked out from the molar mass of the structure shown. Where two headings read alike, the source gives them in different places.

Columns and labels:
A. xylosoxidans [1] = assay type: cell-based, Achromobacter xylosoxidans; details: for MIC: A. xylosoxidans test organism of the sputum time-kill assay
Protocol: (§1) MIC values were determined using a modification of the standard broth microdilution reference method defined by the Clinical and Laboratory Standards Institute (CLSI), CLSL. 2015. Methods for Dilution Antimicrobial Susceptibility Tests for Bacteria That Grow Aerobically; Approved Standard-10th Edition. Clinical and Laboratory Standards Institute, Wayne, PA. The modification was based on the replacement of Mueller Hinton Broth with either CAA media (with and without NaCl) or CAA supplemented with 2.5% human serum. MIC is the minimum concentration of peptide sufficient to suppress at least 80% of the bacterial growth compared to control.
(§2) The MICs for were determined as described below using the broth microdilution method for meropenem, GN370, AM1, AM2, and AM3. The results are shown below in Tables 8-12.
The activity of GN370 and AM1 was evaluated against various bacterial isolates, including mucoid and α-hemolytic isolates of P. aeruginosa, MDR isolates, and carbapenem-resistant isolates.

B. cenocepacia [2] = test: MIC by broth microdilution against B. cenocepacia; assay type: cell-based, Burkholderia cenocepacia; design: MIC Range: unit not given beside the values
Protocol: as §1
(§3) Based on these nine most prevalent strains, direct lytic agents, including GN370, AM1, AM2, and AM3, were evaluated against various isolates from each of the 9 strains. MICs and MBECs (Example 3) were determined, and a sputum inhibition test was conducted, as described below in Example 5.
as §2

A. xylosoxidans [3] = test: Time-kill assay in cystic fibrosis patient sputum, A. xylosoxidans; assay type: cell-based, Achromobacter xylosoxidans
Excerpt: (§4) Sputum from 5 cystic fibrosis patients was pooled. The resulting mixture was not filtered, as it was very dense and not amenable to sterilization by filtration. Sputum is known to be a complex mixture of DNA, carbohydrates, and lipids ([…], 2016). As used herein, the term “sputum” refers to the mucus present in the respiratory tract of an animal, such as a human. Sputum may increase in thickness due to the irritation or infection, including bacterial infection, and in some instances, may be expelled by the animal while coughing. In certain instances, cystic fibrosis may be characterized by the presence of a thick, sticky mucus or sputum present in the lungs of cystic fibrosis patients. The activity of GN370, AM1, AM2, AM3, and meropenem was determined in the sputum using a time-kill assay format as disclosed in Zhang et al., Antimicrobial peptide therapeutics for cystic fibrosis, Antimicrobial Agents Chemother. 2005; 49(7):2921-2927. […] Untreated controls were included in addition to pretreatment plating (t=0) for a baseline CFU determination. Activity was also determined in the absence of sputum for comparison to activity observed in the presence of sputum.

A. ruhlandii = test: MIC by broth microdilution against A. ruhlandii; assay type: cell-based, Achromobacter ruhlandii; details: A. ruhlandii isolates
Protocol: as §1, §3, §2

S. maltophilia = details: for MIC: S. maltophilia test organism of the sputum time-kill assay
P. aeruginosa [4] = test: Time-kill assay in cystic fibrosis patient sputum, P. aeruginosa; assay type: cell-based, Pseudomonas aeruginosa
Excerpt: as §4

A. dolens [5] = test: MIC by broth microdilution against A. dolens; assay type: cell-based, Achromobacter dolens; details: A. dolens isolates
Protocol: as §1, §3, §2

B. cenocepacia [6] = assay type: cell-based, Burkholderia cenocepacia; details: B. cenocepacia (15); 2-hour treatment
Protocol: (§5) The MBEC (after 2-hour treatments) was determined as described in Jones and Wozniak, PsI Produced by Mucoid Pseudomonas aeruginosa Contributes to the Establishment of Biofilms and Immune Evasion, Am. Soc. Microbiol. 2017, 8(3):e00864-17. Meropenem and tobramycin were included as controls and were both poorly active, with MBEC90 values of >256 μg/mL (data not shown).

P. aeruginosa [7] = test system: P. aeruginosa
P. aeruginosa [8] = test: Serial passage resistance development study, P. aeruginosa; assay type: cell-based, Pseudomonas aeruginosa
A. dolens [9] = assay type: cell-based, Achromobacter dolens; details: A. dolens (15); 2-hour treatment
Protocol: as §5

[10] = Achromobacter xylosoxidans, N 11 (Table 26)
[11] = P. aeruginosa (28), 2-hour treatment
[12] = Burkholderia cenocepacia, N 15 (Table 26)
[13] = MDR S. maltophilia isolates (n = 8)
[14] = Stenotrophomonas maltophilia, N 12 (Table 26)
[15] = carbapenem-resistant S. maltophilia isolates (n = 21)

## C[C@@H](O)[C@H]1C(=O)N2C(C(=O)O)=C(S[C@@H]3CN[C@H](C(=O)N(C)C)C3)[C@H](C)[C@H]12 [meropenem, reference compound]
A. xylosoxidans [1]; A. xylosoxidans isolates
  MIC50: 4 µg/mL (≈ 10.4 µM)
  MIC90: > 32 µg/mL
A. xylosoxidans [1]
  MIC: Meropenem (MIC = 0.25)
B. cenocepacia [2]; B. cenocepacia isolates
  MIC50: 4 µg/mL (≈ 10.4 µM)
  MIC90: 8 µg/mL (≈ 20.9 µM)
  MIC Range: 2-32
A. xylosoxidans [3]
  activity in the presence and absence of sputum: poorly active
A. xylosoxidans [3]; absence of sputum, 1 hr
  Log10 CFU/mL of sputum: 4.9 Log10 CFU/mL of sputum
A. xylosoxidans [3]; absence of sputum, 3 hr
  Log10 CFU/mL of sputum: 5.3 Log10 CFU/mL of sputum
A. xylosoxidans [3]; absence of sputum, 24 hr
  Log10 CFU/mL of sputum: 7.3 Log10 CFU/mL of sputum
A. xylosoxidans [3]; presence of 10% sputum, 1 hr
  Log10 CFU/mL of sputum: 4.78 Log10 CFU/mL of sputum
A. xylosoxidans [3]; presence of 10% sputum, 3 hr
  Log10 CFU/mL of sputum: 4.3 Log10 CFU/mL of sputum
A. xylosoxidans [3]; presence of 10% sputum, 24 hr
  Log10 CFU/mL of sputum: 7.56 Log10 CFU/mL of sputum
A. ruhlandii
  MIC50: 16 µg/mL (≈ 41.7 µM)
  MIC90: > 32 µg/mL
S. maltophilia; S. maltophilia isolates
  MIC50: > 32 µg/mL
  MIC90: > 32 µg/mL
S. maltophilia
  MIC: Meropenem (MIC = 32)
P. aeruginosa [4]
  activity in the presence and absence of sputum: poorly active
P. aeruginosa [4]; absence of sputum, 1 hr
  Log10 CFU/mL of sputum: 5.38 Log10 CFU/mL of sputum
P. aeruginosa [4]; absence of sputum, 3 hr
  Log10 CFU/mL of sputum: 4.98 Log10 CFU/mL of sputum
P. aeruginosa [4]; absence of sputum, 24 hr
  Log10 CFU/mL of sputum: 6.38 Log10 CFU/mL of sputum
P. aeruginosa [4]; presence of 10% sputum, 1 hr
  Log10 CFU/mL of sputum: 5.26 Log10 CFU/mL of sputum
P. aeruginosa [4]; presence of 10% sputum, 3 hr
  Log10 CFU/mL of sputum: 4.78 Log10 CFU/mL of sputum
P. aeruginosa [4]; presence of 10% sputum, 24 hr
  Log10 CFU/mL of sputum: 6.6 Log10 CFU/mL of sputum
A. dolens [5]
  MIC50: 2 µg/mL (≈ 5.22 µM)
  MIC90: > 32 µg/mL

B1: GN370: lysin-AMP construct, SEQ ID NO: 149: MIDR, FIRL and NPTH moieties N-terminal to GN202 lysin (protein)
chain: MIDRFIRLNPTHGPRRPRRPGRRAPVRTSQRGIDLIKSFEGLRLSAYQDSVGVWTIGYGTTRGVTRYMTITVEQAERMLSNDIQRFEPELDRLAKVPLNQNQWDALMSFVYNLGAANLASSTLLDLLNKGDYQGAADQFPHWVNAGGKRLDGLVKRRAAERALFLEPLS
modifications: GN370 lysin
A. xylosoxidans [1]; A. xylosoxidans isolates
  MIC50: 8 µg/mL
  MIC90: > 32 µg/mL
A. xylosoxidans [1]
  MIC: GN370 (MIC = 0.25)
A. xylosoxidans [1]; [10]
  MIC50: >64 µg/mL
  MIC90: >64 µg/mL
B. cenocepacia [6]
  MBEC50: 256 µg/mL
P. aeruginosa [7]; 2-hour treatments
  antibiofilm activity (MBEC) against P. aeruginosa: highly active
P. aeruginosa [7]; MDR and XDR P. aeruginosa (9)
  MBEC50: 2 µg/mL
  MBEC90: 4 µg/mL
  MBEC Range: 1 to 4 µg/mL
  Number of isolates at MBEC 1 μg/mL: 4
  Number of isolates at MBEC 2 μg/mL: 4
  Number of isolates at MBEC 4 μg/mL: 1
P. aeruginosa [7]; [11]
  MBEC50: 1 µg/mL
  MBEC90: 2 µg/mL
  MBEC Range: 0.064-4 ^ μg/mL
B. cenocepacia [2]; B. cenocepacia isolates
  MIC50: > 32 µg/mL
  MIC90: > 32 µg/mL
B. cenocepacia [2]; [12]
  MIC50: >64 µg/mL
  MIC90: >64 µg/mL
P. aeruginosa [8]; P. aeruginosa (PA453)
  change in MIC over 28-day serial passage: No change
P. aeruginosa [8]; P. aeruginosa PA453, target organism of serial passage study
  MIC: 0.125 µg/mL
P. aeruginosa [8]; P. aeruginosa strain CFS 1292, Day 28
  change in MIC over serial passage: no significant changes
A. xylosoxidans [3]; 10% CF sputum vs no sputum
  effect of sputum on antibacterial activity: none of GN370, AM1, AM2, and AM3 was inhibited
A. xylosoxidans [3]; absence of sputum, 1 hr
  Log10 CFU/mL of sputum: 3.7 Log10 CFU/mL of sputum
A. xylosoxidans [3]; absence of sputum, 3 hr
  Log10 CFU/mL of sputum: 3.3 Log10 CFU/mL of sputum
A. xylosoxidans [3]; absence of sputum, 24 hr
  Log10 CFU/mL of sputum: 2.3 Log10 CFU/mL of sputum
A. xylosoxidans [3]; presence of 10% sputum, 1 hr
  Log10 CFU/mL of sputum: 3.6 Log10 CFU/mL of sputum
A. xylosoxidans [3]; presence of 10% sputum, 3 hr
  Log10 CFU/mL of sputum: 3.3 Log10 CFU/mL of sputum
A. xylosoxidans [3]; presence of 10% sputum, 24 hr
  Log10 CFU/mL of sputum: 2.3 Log10 CFU/mL of sputum
A. xylosoxidans [3]; time-kill
  CFU reduction by 3 hours: ~2 log10
  CFU reduction by 24 hours: > 3 log10
A. ruhlandii
  MIC50: 2 µg/mL
  MIC90: > 32 µg/mL
S. maltophilia; [13]
  MIC50: 0.25 µg/mL
  MIC90: 0.5 µg/mL
S. maltophilia; MDR S. maltophilia isolates (n = 8), in µg/mL
  MIC Range: 0.0625-0.5
S. maltophilia; S. maltophilia isolates
  MIC50: 0.5 µg/mL
  MIC90: 2 µg/mL
S. maltophilia; S. maltophilia isolates, in µg/mL
  MIC Range: 0.03-2
S. maltophilia
  MIC: GN370 (MIC = 0.5)
S. maltophilia; [14]
  MIC50: 2 µg/mL
  MIC90: 8 µg/mL
  MIC Range: 0.25 to 8 µg/mL
S. maltophilia; XDR S. maltophilia isolate AU29729
  GN370 MIC: 1 µg/mL
S. maltophilia; XDR S. maltophilia isolate AU29873
  GN370 MIC: 0.5 µg/mL
S. maltophilia; XDR S. maltophilia isolate AU30243
  GN370 MIC: 1 µg/mL
S. maltophilia; XDR S. maltophilia isolate AU30793
  GN370 MIC: 1 µg/mL
S. maltophilia; XDR S. maltophilia isolate AU32079
  GN370 MIC: 0.03125 µg/mL
S. maltophilia; XDR S. maltophilia isolate AU33199
  GN370 MIC: 0.0625 µg/mL
S. maltophilia; XDR S. maltophilia isolate AU33860
  GN370 MIC: 2 µg/mL
S. maltophilia; XDR S. maltophilia isolate AU33921
  GN370 MIC: 2 µg/mL
S. maltophilia; XDR S. maltophilia isolate AU34723
  GN370 MIC: 2 µg/mL
S. maltophilia; XDR S. maltophilia isolate AU35419
  GN370 MIC: 2 µg/mL
S. maltophilia; XDR S. maltophilia isolate AU35661
  GN370 MIC: 0.0625 µg/mL
S. maltophilia; XDR S. maltophilia isolate AU36631
  GN370 MIC: 0.5 µg/mL
S. maltophilia; XDR S. maltophilia isolate AU36888
  GN370 MIC: 0.25 µg/mL
S. maltophilia; XDR S. maltophilia isolate AU37239
  GN370 MIC: 1 µg/mL
S. maltophilia; XDR S. maltophilia isolate AU37260
  GN370 MIC: 0.5 µg/mL
S. maltophilia; XDR S. maltophilia isolate AU37689
  GN370 MIC: 0.25 µg/mL
S. maltophilia; XDR S. maltophilia isolate AU37737
  GN370 MIC: 2 µg/mL
S. maltophilia; XDR isolates of S. maltophilia
  MIC50: 1 µg/mL
S. maltophilia; XDR isolates of S. maltophilia, in µg/mL
  MIC Range: 0.03125-2
S. maltophilia; all tested isolates, Tables 8-12
  activity (MIC) against S. maltophilia isolates: highly active
S. maltophilia; [15]
  GN370 MIC50: 0.5 µg/mL
  GN370 MIC90: 2 µg/mL
S. maltophilia; carbapenem-resistant S. maltophilia isolates (n = 21), in µg/mL
  GN370 MIC Range: 0.03-2
A. dolens [9]
  MBEC50: 32 µg/mL
  MBEC90: 128 µg/mL
  MBEC Range: 4 to 128 µg/mL
P. aeruginosa [4]; 10% CF sputum vs no sputum
  effect of sputum on antibacterial activity: not inhibited
P. aeruginosa [4]; absence of sputum, 1 hr
  Log10 CFU/mL of sputum: 2.3 Log10 CFU/mL of sputum
P. aeruginosa [4]; absence of sputum, 3 hr
  Log10 CFU/mL of sputum: 2.3 Log10 CFU/mL of sputum
P. aeruginosa [4]; absence of sputum, 24 hr
  Log10 CFU/mL of sputum: 2.3 Log10 CFU/mL of sputum
P. aeruginosa [4]; presence of 10% sputum, 1 hr
  Log10 CFU/mL of sputum: 3.9 Log10 CFU/mL of sputum
P. aeruginosa [4]; presence of 10% sputum, 3 hr
  Log10 CFU/mL of sputum: 3.6 Log10 CFU/mL of sputum
P. aeruginosa [4]; presence of 10% sputum, 24 hr
  Log10 CFU/mL of sputum: 2.3 Log10 CFU/mL of sputum
P. aeruginosa [4]; time-kill
  CFU reduction by 3 hours: 1.5 log10
  CFU reduction by 24 hours: > 3 log10
A. dolens [5]
  MIC50: 32 µg/mL
  MIC90: > 32 µg/mL
